Measured values: patent US20100280227A1
Blank lines part the entries; values can stand above or below the binder they belong to.

Assays:
Assay in all cases: shotgun alanine scan of phage-displayed BR3; F against wild type
[1] = target: human BR3 displayed on phage, mutated at A22 in the alanine scan (human) (UniProt Q96RJ3)
[2] = target: human BR3 displayed on phage, G36 alanine-scan mutant (human) (UniProt Q96RJ3)
[3] = target: human BR3 displayed on phage, R30 alanine-scan mutant (human) (UniProt Q96RJ3)

F value [1]: 45
B1: murine monoclonal antibody 11G9 (antibody, V domains shown)
VH: DVQLQESGPSLVKPSQTLSLTCSVTGDSITSGYWNWIRKFPGNKLEYMGYISYSGSTYYNPSLKSRISITRDTSKNQFYLQLLSVTTEDTATYYCAGLDGLYWYFDVWGAGTLVTVSS
VL: DIVMTQTPLSLPVSLGDQASISCRSSQSLVHSNGNTYLHWYLQKPGQSPKLLIYKVSNRFSGVPDRFSGSGSGTDFTLKISRVEAEDLGVYFCSQSTHVPPFTFGSGT

F value [2]: 14
B2: murine monoclonal antibody 2.1 (antibody, V domains shown)
VH: EVQLQESGPSLVKPSQTLSLTCSVTGDSITRGYWNWIRKFPGNKLEFMGYINYSGTTYYNPSLKSRISITRDTSKNQYYLQLNSVTTEDTATYYCATPHTYGAMDYWGQGTTLTVSA
VL: DIVLTQSPVSLAVSLGQRATISCRASESVDDYGISFMHWYQQKPGQPPKLLIYRASDLESGIPARFSGSGSGTDFTLTINPVETDDVAIYYCQQTSKDPWTFGGGT

F value [3]: 20
B3: V3-1m (antibody, mouse IgG2a, V domains shown)
VH: EVQLVESGGGLVQPGGSLRLSCAASGFTISSNSIHWVRQAPGKGLEWVAWITPSDGNTDYADSVKGRFTISADTSKNTAYLQMNSLRAEDTAVYYCARRVCYNRLGVCAGGMDYWGQGTLVTVSS
VL: DIQMTQSPSSLSASVGDRVTITCRASQDVSTAVAWYQQKPGKAPKLLIYSASFLYSGVPSRFSGSGSGTDFTLTISSLQPEDFATYYCQQSRITPPTFGQGTKVEIKR
